Publication PMC9482650, “Quantitative fragmentomics allow affinity mapping of interactomes” (Nature Communications, 2022)

T1: DVL3, Q92997
T1 sequence (Q92997 244-331, limits assumed, looked up): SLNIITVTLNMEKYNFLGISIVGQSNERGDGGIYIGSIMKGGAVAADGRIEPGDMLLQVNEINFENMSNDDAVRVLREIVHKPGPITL

T2: LIN7A, O14910
T2 sequence (O14910 103-200, limits assumed, looked up): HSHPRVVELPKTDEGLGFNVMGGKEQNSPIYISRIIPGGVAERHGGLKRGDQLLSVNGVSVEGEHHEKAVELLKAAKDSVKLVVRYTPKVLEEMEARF

T3: RADIL, Q96JH8
T3 sequence (Q96JH8 971-1071, limits assumed, looked up): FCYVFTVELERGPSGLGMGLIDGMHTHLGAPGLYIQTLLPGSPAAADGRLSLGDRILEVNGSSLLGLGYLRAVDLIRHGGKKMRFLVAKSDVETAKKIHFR

T4: DFNB31_3, Q9P202
T4 sequence (Q9P202 811-907, limits assumed, looked up): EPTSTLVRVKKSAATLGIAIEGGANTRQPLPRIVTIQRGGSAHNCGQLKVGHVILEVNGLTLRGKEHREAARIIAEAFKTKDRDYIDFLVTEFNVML

T5: GRIP1_5, Q9Y3R0
T5 sequence (Q9Y3R0 568-668, limits assumed, looked up): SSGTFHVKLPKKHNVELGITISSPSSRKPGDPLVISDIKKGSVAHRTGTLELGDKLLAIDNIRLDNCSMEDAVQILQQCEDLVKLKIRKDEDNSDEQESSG

T6: PDZRN3_1, Q9UPQ7
T6 sequence (Q9UPQ7 244-349, limits assumed, looked up): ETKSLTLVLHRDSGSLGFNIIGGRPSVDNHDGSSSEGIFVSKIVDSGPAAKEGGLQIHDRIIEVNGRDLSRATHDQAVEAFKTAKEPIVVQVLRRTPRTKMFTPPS

T7: GRIP1_2, Q9Y3R0
T7 sequence (Q9Y3R0 145-248, limits assumed, looked up): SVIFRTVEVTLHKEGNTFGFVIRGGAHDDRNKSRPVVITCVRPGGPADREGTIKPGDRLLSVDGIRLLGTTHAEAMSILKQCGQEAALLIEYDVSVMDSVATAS

T8: GRIP1_3, Q9Y3R0
T8 sequence (Q9Y3R0 247-346, limits assumed, looked up): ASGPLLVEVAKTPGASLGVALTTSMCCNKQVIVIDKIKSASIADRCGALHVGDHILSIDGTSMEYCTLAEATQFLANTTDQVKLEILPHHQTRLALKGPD

T9: RAPGEF6, Q8TEU7
T9 sequence (Q8TEU7 525-625, limits assumed, looked up): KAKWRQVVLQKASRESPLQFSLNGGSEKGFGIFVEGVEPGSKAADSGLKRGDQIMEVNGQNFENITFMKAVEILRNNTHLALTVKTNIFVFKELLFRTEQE

T10: RHPN1, Q8TCX5
T10 sequence (Q8TCX5 508-602, limits assumed, looked up): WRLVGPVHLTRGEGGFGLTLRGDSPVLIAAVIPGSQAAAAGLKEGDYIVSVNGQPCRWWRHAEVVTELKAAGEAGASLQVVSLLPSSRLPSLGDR


Experiments:
Experiment in all cases: holdup assay
Parameters in all cases: key: below the threshold = too weak to quantify, mostly under pKd 3.1 to 4
Conditions in all cases: plain residues with an end cap or a label only (N-terminal biotin on a linker: ado-ado)
[1] = target: T1, DVL3, Q92997
[2] = target: LNX1_3, Q8TBB1
Chain of LNX1_3, Q8TBB1 (Q8TBB1 500-596): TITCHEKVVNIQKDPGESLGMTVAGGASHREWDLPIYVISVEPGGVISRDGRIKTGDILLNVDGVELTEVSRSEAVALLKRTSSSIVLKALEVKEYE

[3] = target: GORASP2, Q9H8Y8
[4] = target: MAST2, Q6P0Q8
Chain of MAST2, Q6P0Q8 (Q6P0Q8 1099-1202): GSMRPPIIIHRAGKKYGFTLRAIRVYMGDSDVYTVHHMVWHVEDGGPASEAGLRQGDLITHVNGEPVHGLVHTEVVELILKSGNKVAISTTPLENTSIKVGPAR

[5] = target: T2, LIN7A, O14910
[6] = target: NHERF4_2, Q86UT5
Chain of NHERF4_2, Q86UT5 (Q86UT5 220-308): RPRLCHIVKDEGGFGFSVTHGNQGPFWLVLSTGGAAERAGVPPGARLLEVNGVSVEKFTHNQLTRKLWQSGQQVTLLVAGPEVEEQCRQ

[7] = target: DLG4_2, P78352
Chain of DLG4_2, P78352 (P78352 155-259): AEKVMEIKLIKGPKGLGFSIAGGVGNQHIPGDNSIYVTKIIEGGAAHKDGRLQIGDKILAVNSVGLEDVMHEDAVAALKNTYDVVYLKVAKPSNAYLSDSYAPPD

[8] = target: DLG4_3, P78352
Chain of DLG4_3, P78352 (P78352 306-403): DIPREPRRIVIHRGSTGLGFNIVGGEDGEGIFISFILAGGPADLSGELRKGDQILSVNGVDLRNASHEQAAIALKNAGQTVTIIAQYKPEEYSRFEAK

[9] = target: SCRIB_1, Q14160
Chain of SCRIB_1, Q14160 (Q14160 718-814): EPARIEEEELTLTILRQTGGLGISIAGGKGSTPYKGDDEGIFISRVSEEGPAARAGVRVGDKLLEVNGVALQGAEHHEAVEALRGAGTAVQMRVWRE

[10] = target: T3, RADIL, Q96JH8
[11] = target: PDLIM1, O00151
Chain of PDLIM1, O00151 (O00151 1-87): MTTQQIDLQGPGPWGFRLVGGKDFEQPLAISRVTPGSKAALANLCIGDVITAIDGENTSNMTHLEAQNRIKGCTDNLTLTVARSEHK

[12] = target: TJP2_1, Q9UDY2
Chain of TJP2_1, Q9UDY2 (Q9UDY2 24-128): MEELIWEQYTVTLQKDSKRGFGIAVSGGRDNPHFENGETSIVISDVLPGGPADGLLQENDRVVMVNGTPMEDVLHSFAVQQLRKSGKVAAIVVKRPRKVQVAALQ

[13] = target: PDZRN4_1, Q6ZMN7
Chain of PDZRN4_1, Q6ZMN7 (Q6ZMN7 213-318): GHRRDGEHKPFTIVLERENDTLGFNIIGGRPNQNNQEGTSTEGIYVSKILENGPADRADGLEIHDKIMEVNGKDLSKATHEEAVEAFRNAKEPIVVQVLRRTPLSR

[14] = target: T4, DFNB31_3, Q9P202
[15] = target: T5, GRIP1_5, Q9Y3R0
[16] = target: MAGI1_1, Q96QZ7
Chain of MAGI1_1, Q96QZ7 (Q96QZ7 1-106): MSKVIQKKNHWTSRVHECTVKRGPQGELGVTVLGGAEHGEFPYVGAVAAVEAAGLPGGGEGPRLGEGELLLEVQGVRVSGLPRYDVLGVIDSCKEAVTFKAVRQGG

[17] = target: T6, PDZRN3_1, Q9UPQ7
[18] = target: T7, GRIP1_2, Q9Y3R0
[19] = target: HTRA1, Q92743
Chain of HTRA1, Q92743 (Q92743 360-477): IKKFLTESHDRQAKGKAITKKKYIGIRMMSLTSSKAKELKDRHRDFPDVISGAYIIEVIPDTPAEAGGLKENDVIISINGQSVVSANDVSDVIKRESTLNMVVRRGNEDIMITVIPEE

[20] = target: Inadl_10, Q8NI35
Chain of Inadl_10, Q8NI35 (Q8NI35 1673-1763): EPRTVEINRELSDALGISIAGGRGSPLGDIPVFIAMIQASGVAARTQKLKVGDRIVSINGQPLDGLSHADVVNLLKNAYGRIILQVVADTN

[21] = target: NHERF4_4, Q86UT5
Chain of NHERF4_4, Q86UT5 (Q86UT5 464-550): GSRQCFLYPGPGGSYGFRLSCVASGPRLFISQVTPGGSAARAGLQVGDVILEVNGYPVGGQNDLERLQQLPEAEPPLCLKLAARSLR

[22] = target: GORASP1, Q9BQQ3
Chain of GORASP1, Q9BQQ3 (Q9BQQ3 1-208): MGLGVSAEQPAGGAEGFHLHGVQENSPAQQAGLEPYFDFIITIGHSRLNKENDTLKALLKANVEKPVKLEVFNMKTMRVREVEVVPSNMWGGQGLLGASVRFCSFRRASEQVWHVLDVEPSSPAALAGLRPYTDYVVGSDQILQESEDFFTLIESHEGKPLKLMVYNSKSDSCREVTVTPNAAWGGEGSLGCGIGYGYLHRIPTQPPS

[23] = target: T8, GRIP1_3, Q9Y3R0
[24] = target: T9, RAPGEF6, Q8TEU7
[25] = target: T10, RHPN1, Q8TCX5
[26] = target: LNX1_1, Q8TBB1
Chain of LNX1_1, Q8TBB1 (Q8TBB1 261-371): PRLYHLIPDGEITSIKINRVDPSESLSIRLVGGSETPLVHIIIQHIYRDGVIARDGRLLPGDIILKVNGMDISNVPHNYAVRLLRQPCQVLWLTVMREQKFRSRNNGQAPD

[27] = target: GIPC2, Q8TF65
Chain of GIPC2, Q8TF65 (Q8TF65 112-203): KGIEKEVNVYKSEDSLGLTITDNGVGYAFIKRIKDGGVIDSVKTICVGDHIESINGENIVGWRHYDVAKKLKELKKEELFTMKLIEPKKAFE

Binder	pKd [1]	pKd [2]	pKd [3]	pKd [4]	pKd [5]	pKd [6]	pKd [7]	pKd [8]	pKd [9]	pKd [10]	pKd [11]	pKd [12]	pKd [13]	pKd [14]	pKd [15]	pKd [16]	pKd [17]	pKd [18]	pKd [19]	pKd [20]	other results
GSGAVEMESV [AQP6, Q13520]	below the threshold	below the threshold	below the threshold	4.03	below the threshold	below the threshold	below the threshold	below the threshold	below the threshold	3.56	below the threshold	below the threshold	below the threshold	below the threshold	below the threshold	below the threshold	below the threshold	below the threshold	below the threshold	below the threshold	pKd [21]: below the threshold; pKd [22]: below the threshold; pKd [23]: below the threshold; pKd [24]: below the threshold; pKd [25]: below the threshold; pKd [26]: below the threshold; pKd [27]: below the threshold
CLREWCDAFL [BANF1, O75531]	3.65	below the threshold	below the threshold	5.52	below the threshold	below the threshold	below the threshold	below the threshold	below the threshold	3.85	below the threshold	below the threshold	below the threshold	below the threshold	below the threshold	below the threshold	below the threshold	below the threshold	5.01	below the threshold	pKd [21]: 3.6; pKd [22]: 3.82; pKd [23]: below the threshold; pKd [24]: 3.47; pKd [25]: below the threshold; pKd [26]: below the threshold; pKd [27]: below the threshold

Now from value to binder, other results behind:

pKd [1]	pKd [2]	pKd [3]	pKd [4]	pKd [5]	pKd [6]	pKd [7]	pKd [8]	pKd [9]	pKd [10]	pKd [11]	pKd [12]	pKd [13]	pKd [14]	pKd [15]	pKd [16]	pKd [17]	pKd [18]	pKd [19]	pKd [20]	Binder	other results
below the threshold	below the threshold	below the threshold	5.4	below the threshold	below the threshold	below the threshold	below the threshold	4.36	below the threshold	below the threshold	below the threshold	3.53	below the threshold	below the threshold	below the threshold	3.63	below the threshold	below the threshold	below the threshold	SARSRLSSNL [HCN2, Q9UL51]	pKd [21]: below the threshold; pKd [22]: below the threshold; pKd [23]: below the threshold; pKd [24]: below the threshold; pKd [25]: 3.92; pKd [26]: below the threshold; pKd [27]: below the threshold
below the threshold	below the threshold	4.26	4.48	below the threshold	below the threshold	4.97	4.23	3.92	4.21	below the threshold	3.81	below the threshold	below the threshold	below the threshold	below the threshold	3.54	below the threshold	4.13	below the threshold	PPYRHRNTVV [ERBB4, Q15303]	pKd [21]: below the threshold; pKd [22]: 4.19; pKd [23]: below the threshold; pKd [24]: below the threshold; pKd [25]: 3.6; pKd [26]: 4.23; pKd [27]: 3.6
